According to patent publication US9770493B2 (DSM IP ASSETS B.V., priority 2008, dated 2017):
Read-outs that look alike come from different tables or passages of the source. Peptide text beside a SMILES is read from it.

What was measured:
[1] = set-up: species or system human; settings: in vivo
Source text: The aim of the present study was to investigate in healthy volunteers plasma Trp/LNAA profiles and mood after the consumption of different tryptophan containing preparations.
Eighteen healthy students (9 males and 9 females: age between 18-30 years) participated in the study. Exclusion criteria for participation were chronic and current illness, history of psychiatric or medical illness, use of medication or drugs, alcohol consumption (>2 units/day), metabolic-, hormonal- or intestinal diseases and irregular diets or deviant eating habits (assessed by health and life-style questionnaires). Subjects participating in the experiment were in the normal range for the Body-Mass Index (BMI in kg/m^2 between 20-25) and female subjects are matched for contraception. Women participated during their mid-late follicular phase (day 4-10), while women using contraception participated when they actually used the contraception pill. […] All subjects participating in the experiment signed an Informed Consent Form. This study was conducted according to the EC principles of Good Clinical Practice (GCP) adopted by the 52nd WMA General Assembly, Edinburgh, Scotland, October 2000.
Subjects were instructed to fast overnight; only water or tea without sugar was permitted. During […] experimental morning sessions, subjects visited the laboratory to monitor plasma Trp/LNAA concentrations and mood following the intake of a drink containing different Trp or LNAA concentrations. The order of presentation of the various drinks was counterbalanced and the four experimental days were separated by a one-week period. On each experimental morning, a 312 ml drink was provided containing different tryptophan (Trp) or LNAA concentrations (Table 2). All drinks contained 0.10 g sweetener (acesulfame) and were filled up with plain water in order to reach 312 mL. A research assistant blind to the dietary conditions conducted the administration of the different drinks.
Blood samples were collected in duplicate before and 15, 30, 60, 90, 120, 180 and 210 minutes after ingestion in 5 ml vacutainer tubes containing sodium heparine and were then centrifuged at 5000 rpm for 5 min at 4° C. The resulting supernatants were mixed with sulfasalicyl acid (4 mg/100 microliter) and directly stored at −80° C. until analysis. Plasma amino acid analysis was conducted with HPLC, making use of a 2-3 μm Bischof Spherisorb ODS II column as described by van Eijk et al (J. Chromatogr. 1993: 620: 143-148). The plasma Trp/LNAA ratios were calculated by dividing the plasma molar tryptophan concentration by the sum of the plasma molar concentrations of the large neutral amino acids valine, isoleucine, leucine, tyrosine and phenylalanine. Statistical analysis took place by means of repeated measures multivariate and univariate analyses of variance (MANOVA and ANOVA) using the General Linear Model (GLM: SPSS 12.0 for Windows). All statistics were evaluated at a significance level of P=0.05.

healthy volunteers = assay: Profile of Mood States (POMS) after drinks with different tryptophan sources (Example 6); assay type: in vivo, human; settings: for mood changes (POMS total mood scores): after the intake, over the session
Method: Subjects were instructed to fast overnight; only water or tea without sugar was permitted. During five experimental morning sessions, subjects visited the laboratory to monitor plasma Trp/LNAA concentrations and mood following the intake of a drink containing different Trp or LNAA concentrations. The order of presentation of the various drinks was counterbalanced and the four experimental days were separated by a one-week period. On each experimental morning, a 312 ml drink was provided containing different tryptophan (Trp) or LNAA concentrations (Table 2). All drinks contained 0.10 g sweetener (acesulfame) and were filled up with plain water in order to reach 312 mL. A research assistant blind to the dietary conditions conducted the administration of the different drinks.
The POMS comprises five different subscales for mood; ranging from Anger, Depression, Fatigue and Tension that refer to a negative mood state, to Vigor concerning a positive mood.

pepsin [2] = biological target: T1, pepsin (Sus scrofa, UniProt P00791); assay: Test for protease resistancy (pepsin pH 4, SDS-PAGE); assay type: in vitro ADME; settings: pepsin 1% w/w, 2 hours at 37 degrees C
T1 construct: purchased Sigma
Method: To test its digestibility in the human stomach, a 5% (w/w) solution of the intact protein was incubated with pepsin (Sigma; 1% w/w pepsin to intact protein) for 2 hours at 37 degrees C. in a Mc Ilvane buffer (0.2 M citric acid plus Na2HPO4) pH 4.0. The degree of protease resistancy is defined as the percentage of the protein that is not affected by the pepsin incubation. “Not affected” meaning that the molecular weight of the protein has not changed as a result of the pepsin incubation; “percentage of the protein” meaning the area under the curve after digestion times 100, divided by the area under the curve prior to digestion; “area under the curve” is the area of the protein having the initial molecular weight as provided by the quantitative analysis method used (see further).
Molecular weights are compared according to SDS-PAGE followed by staining according to the protocol specified hereunder. After staining of the gel, a digital image is prepared using the OptiGo imaging system (Isogen Life Science; www.isogen-life-science.com) followed by the quantitative analysis of selected protein bands using Totallab TL 100, version 2006 software (Nonlinear Dynamics Ltd; www.nonlinear.com) running under Windows XP.
All materials used for SDS-PAGE and staining were purchased from Invitrogen (Carlsbad, Calif., US). […] Staining was performed using Simply Blue Safe Stain (Collodial Coomassie G250).
Together with beta-lactoglobulin, alpha-lactalbumin forms the major protein constituent of whey. Because of its high Trp/LNAA ratio, isolated alpha-lactalbumin fractions as well as alpha-lactalbumin hydrolysates have gained popularity for enhancing plasma tryptophan levels. […] According to the present application, a pepsin-resistant molecule with a high Trp/LNAA ratio is essential to maintain high plasma Trp/LNAA ratios longer term. […] This was illustrated in the following experiment. […] After incubation both solutions were heated for 5 minutes at 80 degrees C. to terminate the reaction and small samples were subjected to SDS-PAGE (see Materials & Methods) to test the integrity of the various pepsin treated molecules.

[3] = earlier studies (Markus et al., 2000; Booij et al., 2006); cited from earlier work
pepsin [4] = biological target: T1, pepsin; assay: Lysozyme hydrolysis by pepsin (in vitro digestibility, DH); assay type: in vitro ADME; settings: pH start 2.8, 2 hours at 37 degrees C
Method: (§1) Both incubations were carried out under pH conditions that are prevalent in the stomach (pepsin) and duodenum (trypsin/chymotrypsin). […] To prevent major pH changes as the result of the ongoing protein hydrolysis, incubation was carried out in a Mc Ilvane buffer (0.2 M citric acid plus Na2HPO4).

[5] = system: trypsin/chymotrypsin mixture; assay: Lysozyme hydrolysis by a trypsin/chymotrypsin mixture (in vitro digestibility, DH); assay type: in vitro ADME, Porcine; settings: pH start 7.2, 2 hours at 37 degrees C
Method: as §1

[6] = biological target: T2, microbial subtilisin (EC 3.4.21.62) (Bacillus licheniformis, UniProt P00780); assay: Susceptibility of lysozyme to subtilisin (Protex 6L) hydrolysis at elevated pH, DH; assay type: physicochemical
T2 construct: purchased Genencor (Leiden, The Netherlands) Protex 6L
T2 sequence (P00780 106-379): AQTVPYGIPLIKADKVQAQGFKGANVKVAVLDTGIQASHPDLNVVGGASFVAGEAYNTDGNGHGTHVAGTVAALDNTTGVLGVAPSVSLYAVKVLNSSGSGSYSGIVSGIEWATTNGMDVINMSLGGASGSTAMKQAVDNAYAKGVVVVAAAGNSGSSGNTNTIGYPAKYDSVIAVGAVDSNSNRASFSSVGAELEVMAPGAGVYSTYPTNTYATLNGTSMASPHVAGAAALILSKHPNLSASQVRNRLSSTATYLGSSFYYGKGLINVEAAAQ
Method: The Degree of Hydrolysis (DH) as obtained during incubation with the various proteolytic mixtures was monitored using a rapid OPA test (Nielsen, P. M.; Petersen, D.; Dambmann, C. Improved method for determining food protein degree of hydrolysis. Journal of Food Science 2001, 66, 642-646).
The incubation was carried out for 3 hours at 60 degrees C. with a constant adjustment of the pH using 1M NaOH. The incubations yielded slightly turbid solutions without any significant precipitates. After a heating step to inactivate the subtilisin activity, the DH values of the various incubations were measured according to the protocol described in the Materials & Methods section. […] The pH 7.0 incubation yielded a DH of 6.3, the pH 8.0 incubation a DH of 11.2 and the pH 9.0 incubation a DH of 16.4.

[7] = Kinetics of plasma Trp/LNAA ratio after hydrolysed, intact or mixed lysozyme (Example 11); assay type: in vivo, human; settings: inferred from area-under-the-curve
Source text: Exclusion criteria were: chronic and current illness, at the discretion of the investigator; history of psychiatric disorders; use of selective serotonin reuptake inhibitors (SSRI); use of supplements targeting the central nervous system, such as supplements containing tryptophan, ephedrine, or St John's wort; egg allergy; drug abuse; participation in any other study involving investigational or marketed products concomitantly; intolerance to artificial sweeteners; any (history of) gastrointestinal disease that interferes with gastrointestinal function, at the discretion of the investigator; use of medication targeting the gastro-intestinal tract, such as antacids. Finally, for women, pregnancy or the use of a medically not accepted contraceptive method is an exclusion criterion as well. All subjects participating in the experiment signed an Informed Consent Form.
The study was performed according to a randomized, double-blind, crossover design with a washout period between the intake of the different treatments of three days at least.
The drinks were presented as sterile products in bottles with straws. […] A research assistant blind to the dietary conditions conducted the administration of the different drinks.
The subjects visited the site between 8 and 9 am, having fasted for at least 8 hours. A flexible cannula for blood drawings was inserted in their non-dominant forearm. […]

T1 sequence (P00791 60-385): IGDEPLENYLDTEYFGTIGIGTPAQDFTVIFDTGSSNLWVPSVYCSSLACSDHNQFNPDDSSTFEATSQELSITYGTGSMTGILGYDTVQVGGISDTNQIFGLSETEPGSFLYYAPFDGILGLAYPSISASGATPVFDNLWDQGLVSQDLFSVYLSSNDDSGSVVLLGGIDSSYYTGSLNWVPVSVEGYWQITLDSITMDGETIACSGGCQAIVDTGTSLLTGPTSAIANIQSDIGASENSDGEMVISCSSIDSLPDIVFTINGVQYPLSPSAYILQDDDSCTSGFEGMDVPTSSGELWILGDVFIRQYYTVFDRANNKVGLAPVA

## N[C@@H](CO)C(=O)N[C@@H](Cc1c[nH]c2ccccc12)C(=O)O [SYN, Ser-Trp] (H-Ser-Trp-OH)
[1]
  increase in plasma Trp/LNAA ratio: 263%
Healthy volunteers
  mood changes (POMS total mood scores): not significant

## N[C@@H](Cc1c[nH]c2ccccc12)C(=O)O [TRP, L-tryptophan]
[1]; both, human, 0 min
  plasma Trp/LNAA: 0.11
[1]; both, human, 30 min
  plasma Trp/LNAA: 0.12
[1]; both, human, 60 min
  plasma Trp/LNAA: 0.29
[1]; both, human, 90 min
  plasma Trp/LNAA: 0.31
[1]; both, human, 120 min
  increase in plasma Trp/LNAA ratio: 191%
  plasma Trp/LNAA: 0.32
[1]; both, human, 180 min
  plasma Trp/LNAA: 0.24
[1]; both, human, 210 min
  plasma Trp/LNAA: 0.20
Healthy volunteers; 60 min after the intake
  mood (POMS total mood scores): Comparable improvements of mood

## ALAC: intact alpha-lactalbumin obtained as Biopure (>90% alpha-lactalbumin) from Davisco Foods; in Example 10 part of whey protein (Bipro)
[1]
  increase in plasma Trp/LNAA ratio: 67%
Healthy volunteers
  mood changes (POMS total mood scores): no mood changes
Pepsin [2]
  quantity of intact protein after incubation with pepsin (SDS-PAGE): almost completely degraded
Pepsin [2]; listed as alpha-lactoglobulin
  protease resistant according to the test (more than 50% of protein with original molecular weight present): not “protease resistant”
Pepsin [2]; listed as intact alpha-lactalbumine
  protease resistant according to the test (more than 50% of protein with original molecular weight present): not protease-resistant
[3]
  increases in plasma Trp/LNAA as previously found: 50-70%

## beta-lactoglobulin: whey protein constituent of Bipro (Davisco), very low Trp/LNAA ratio (0.04)
Pepsin [2]
  protease resistant according to the test (more than 50% of protein with original molecular weight present): protease resistant
  quantity of intact protein after incubation with pepsin (SDS-PAGE): remains largely intact

## lysozyme: hen egg lysozyme (EC 3.2.1.17), intact protein, obtained as Delvozyme L or Delvozyme G from DSM Food Specialties
Pepsin [4]
  DH end (%): 2.4%
[5]
  DH end (%): 1.3%
[6]; pH 7.0, 3 hours at 60 degrees C
  DH: 6.3
[6]; pH 8.0, 3 hours at 60 degrees C
  DH: 11.2
[6]; pH 9.0, 3 hours at 60 degrees C
  DH: 16.4
Pepsin [2]
  protease resistant according to the test (more than 50% of protein with original molecular weight present): protease resistant
  quantity of intact protein after incubation with pepsin (SDS-PAGE): not significantly diminished
[7]
  digestion and uptake into the blood: completely digested and taken up into the blood
